Test results published in publication PMC10397247.

Columns and labels:
[1] = target: T1, O6-bH; assay: two-hybrid library CCNG1;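 also: natural log of median RNA to DNA barcode read ratio; higher means stronger binding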
T1 chain: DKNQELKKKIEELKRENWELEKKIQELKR

[2] = target: T2, O3-bH; assay: two-hybrid library CCNG1;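 also: natural log of median RNA to DNA barcode read ratio; higher means stronger binding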
T2 chain: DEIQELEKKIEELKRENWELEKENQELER

[3] = target: T3, O4-bH; assay: two-hybrid library CCNG1;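 also: natural log of median RNA to DNA barcode read ratio; higher means stronger binding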
T3 chain: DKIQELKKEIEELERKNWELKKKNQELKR

[4] = target: T4, O8-bH; assay: two-hybrid library CCNG1;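 also: natural log of median RNA to DNA barcode read ratio; higher means stronger binding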
T4 chain: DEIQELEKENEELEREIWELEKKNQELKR

[5] = target: T5, O9-bH; assay: two-hybrid library CCNG1;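 also: natural log of median RNA to DNA barcode read ratio; higher means stronger binding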
T5 chain: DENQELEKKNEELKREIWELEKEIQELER

[6] = target: T6, O8-bP; assay: two-hybrid library CCNG1;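 also: natural log of median RNA to DNA barcode read ratio; higher means stronger binding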
T6 chain: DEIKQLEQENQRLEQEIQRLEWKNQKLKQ

[7] = target: T7, O7-bH; assay: two-hybrid library CCNG1
T7 chain: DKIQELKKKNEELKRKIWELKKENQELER

[8] = target: T8, O5-bH; assay: two-hybrid library CCNG1
T8 chain: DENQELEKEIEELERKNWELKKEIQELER

[9] = target: T9, P7bHq; assay: two-hybrid library CCNG1
T9 chain: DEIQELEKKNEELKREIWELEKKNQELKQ

[10] = target: T10, P6bHq; assay: two-hybrid library CCNG1
T10 chain: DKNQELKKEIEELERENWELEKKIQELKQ

[11] = target: T11, P9bHq; assay: two-hybrid library CCNG1
T11 chain: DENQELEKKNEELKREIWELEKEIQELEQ

[12] = target: T12, P8bHq; assay: two-hybrid library CCNG1
T12 chain: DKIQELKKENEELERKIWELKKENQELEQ

[13] = target: T13, 4H850-bA; assay: two-hybrid library CCNG1
T13 chain: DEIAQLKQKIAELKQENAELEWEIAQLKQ

[14] = target: T14, 4H3172-bA; assay: two-hybrid library CCNG1
T14 chain: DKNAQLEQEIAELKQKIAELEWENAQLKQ

[15] = target: T15, 4H3414-bA; assay: two-hybrid library CCNG1
T15 chain: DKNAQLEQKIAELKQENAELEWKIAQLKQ

[16] = target: T16, 4H570-bA; assay: two-hybrid library CCNG1
T16 chain: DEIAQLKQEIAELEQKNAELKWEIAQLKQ

[17] = target: T17, 4H3974-bA; assay: two-hybrid library CCNG1
T17 chain: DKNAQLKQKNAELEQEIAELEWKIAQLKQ

[18] = target: T18, 4H3631-bA; assay: two-hybrid library CCNG1
T18 chain: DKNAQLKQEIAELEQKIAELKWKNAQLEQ

[19] = target: T19, 4H3817-bA; assay: two-hybrid library CCNG1
T19 chain: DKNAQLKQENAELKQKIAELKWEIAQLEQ

[20] = target: T20, 4H3638-bA; assay: two-hybrid library CCNG1
T20 chain: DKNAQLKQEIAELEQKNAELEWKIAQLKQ

[21] = target: T21, 4H906-bA; assay: two-hybrid library CCNG1
T21 chain: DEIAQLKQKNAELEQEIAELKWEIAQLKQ

[22] = target: T22, 4H584-bA; assay: two-hybrid library CCNG1
T22 chain: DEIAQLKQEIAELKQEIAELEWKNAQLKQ

[23] = target: T23, 4H619-bA; assay: two-hybrid library CCNG1
T23 chain: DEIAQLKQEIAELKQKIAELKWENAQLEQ

[24] = target: T24, 4H2648-AA; assay: two-hybrid library CCmax; settings: mean of both orientations
T24 chain: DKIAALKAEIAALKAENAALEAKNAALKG

[25] = target: T25, 4H3588-AA; assay: two-hybrid library CCmax; settings: mean of both orientations
T25 chain: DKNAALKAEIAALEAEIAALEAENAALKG

[26] = target: T26, 4H697-AA; assay: two-hybrid library CCmax; settings: mean of both orientations
T26 chain: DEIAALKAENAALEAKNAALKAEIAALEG

[27] = target: T27, 4H1845-AA; assay: two-hybrid library CCmax; settings: mean of both orientations
T27 chain: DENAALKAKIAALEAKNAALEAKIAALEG

[28] = target: T28, 4H3697-AA; assay: two-hybrid library CCmax; settings: mean of both orientations
T28 chain: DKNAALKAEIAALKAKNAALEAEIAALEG

[29] = target: T29, 4H3378-AA; assay: two-hybrid library CCmax; settings: mean of both orientations
T29 chain: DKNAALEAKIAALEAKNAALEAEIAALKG

[30] = target: T30, 4H2198-AA; assay: two-hybrid library CCmax; settings: mean of both orientations
T30 chain: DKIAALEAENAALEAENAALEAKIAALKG

[31] = target: T31, 4H2611-AA; assay: two-hybrid library CCmax; settings: mean of both orientations
T31 chain: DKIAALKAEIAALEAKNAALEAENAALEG

[32] = target: T32, 4H384-AA; assay: two-hybrid library CCmax; settings: mean of both orientations
T32 chain: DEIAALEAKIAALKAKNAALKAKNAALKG

[33] = target: T33, 4H982-AA; assay: two-hybrid library CCmax; settings: mean of both orientations
T33 chain: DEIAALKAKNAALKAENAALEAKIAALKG

[34] = target: T34, 4H32-AA; assay: two-hybrid library CCmax; settings: mean of both orientations
T34 chain: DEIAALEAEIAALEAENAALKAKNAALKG

[35] = target: T35, 4H3865-AA; assay: two-hybrid library CCmax; settings: mean of both orientations
T35 chain: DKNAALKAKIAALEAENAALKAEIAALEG

[36] = target: T36, 4H3631-AA; assay: two-hybrid library CCmax; settings: mean of both orientations
T36 chain: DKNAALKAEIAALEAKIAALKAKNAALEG

[37] = target: T37, 4H3056-AA; assay: two-hybrid library CCmax; settings: mean of both orientations
T37 chain: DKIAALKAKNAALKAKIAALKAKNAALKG

[38] = target: T38, 4H340-AA; assay: two-hybrid library CCmax; settings: mean of both orientations
T38 chain: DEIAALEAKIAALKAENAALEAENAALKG

[39] = target: T39, 4H3413-AA; assay: two-hybrid library CCmax; settings: mean of both orientations
T39 chain: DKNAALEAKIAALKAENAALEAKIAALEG

[40] = target: T40, 4H3162-AA; assay: two-hybrid library CCmax; settings: mean of both orientations
T40 chain: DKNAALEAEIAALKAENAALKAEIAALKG

[41] = target: T41, 4H3133-AA; assay: two-hybrid library CCmax; settings: mean of both orientations
T41 chain: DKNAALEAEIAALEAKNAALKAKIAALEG

[42] = target: T42, 4H3606-AA; assay: two-hybrid library CCmax; settings: mean of both orientations
T42 chain: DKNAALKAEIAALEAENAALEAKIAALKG

[43] = target: T43, 4H3718-AA; assay: two-hybrid library CCmax; settings: mean of both orientations
T43 chain: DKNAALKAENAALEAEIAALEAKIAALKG

[44] = target: T44, 4H1629-AA; assay: two-hybrid library CCmax
T44 chain: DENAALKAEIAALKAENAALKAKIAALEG

[45] = target: T45, 4H1874-AA; assay: two-hybrid library CCmax; settings: mean of both orientations
T45 chain: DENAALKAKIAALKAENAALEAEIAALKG

[46] = target: T46, 4H2620-AA; assay: two-hybrid library CCmax; settings: mean of both orientations
T46 chain: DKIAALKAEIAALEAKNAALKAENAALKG

[47] = target: T47, 4H2553-AA; assay: two-hybrid library CCmax; settings: mean of both orientations
T47 chain: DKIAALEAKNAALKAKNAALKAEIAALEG

[48] = target: T48, 4H2907-AA; assay: two-hybrid library CCmax; settings: mean of both orientations
T48 chain: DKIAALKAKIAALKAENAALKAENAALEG

[49] = target: T49, 4H687-AA; assay: two-hybrid library CCmax; settings: mean of both orientations
T49 chain: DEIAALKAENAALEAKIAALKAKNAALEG

[50] = target: T50, 4H717-AA; assay: two-hybrid library CCmax; settings: mean of both orientations
T50 chain: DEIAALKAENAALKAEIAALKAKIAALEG

[51] = target: T51, 4H797-AA; assay: two-hybrid library CCmax; settings: mean of both orientations
T51 chain: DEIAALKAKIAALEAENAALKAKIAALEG

[52] = target: T52, 4H883-AA; assay: two-hybrid library CCmax; settings: mean of both orientations
T52 chain: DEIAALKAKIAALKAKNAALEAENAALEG

[53] = target: T53, 4H967-AA; assay: two-hybrid library CCmax; settings: mean of both orientations
T53 chain: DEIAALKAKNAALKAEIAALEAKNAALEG

[54] = target: T54, 4H918-AA; assay: two-hybrid library CCmax; settings: mean of both orientations
T54 chain: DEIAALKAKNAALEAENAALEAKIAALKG

[55] = target: T55, 4H4001-AA; assay: two-hybrid library CCmax
T55 chain: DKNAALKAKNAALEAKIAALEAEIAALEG

[56] = target: T56, 4H568-AA; assay: two-hybrid library CCmax; settings: mean of both orientations
T56 chain: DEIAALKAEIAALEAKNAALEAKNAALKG

[57] = target: T57, 4H953-AA; assay: two-hybrid library CCmax; settings: mean of both orientations
T57 chain: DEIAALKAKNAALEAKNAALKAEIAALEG

[58] = target: T58, 4H3172-bN; assay: two-hybrid library CCNG1
T58 chain: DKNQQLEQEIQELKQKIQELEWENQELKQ

[59] = target: T59, 4H3638-bN; assay: two-hybrid library CCNG1
T59 chain: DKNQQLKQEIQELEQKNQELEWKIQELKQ

[60] = target: T60, 4H3974-bN; assay: two-hybrid library CCNG1
T60 chain: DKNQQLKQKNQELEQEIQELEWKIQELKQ

[61] = target: T61, 4H570-bN; assay: two-hybrid library CCNG1
T61 chain: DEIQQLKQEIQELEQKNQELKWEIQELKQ

[62] = target: T62, 4H906-bN; assay: two-hybrid library CCNG1
T62 chain: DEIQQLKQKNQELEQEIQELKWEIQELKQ

[63] = target: T63, 4H3817-bN; assay: two-hybrid library CCNG1
T63 chain: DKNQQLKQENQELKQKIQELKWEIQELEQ

[64] = target: T64, 4H3631-bN; assay: two-hybrid library CCNG1
T64 chain: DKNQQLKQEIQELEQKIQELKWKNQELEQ

[65] = target: T65, 4H3129-bN; assay: two-hybrid library CCNG1
T65 chain: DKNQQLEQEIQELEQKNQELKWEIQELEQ

[66] = target: T66, 4H584-bN; assay: two-hybrid library CCNG1
T66 chain: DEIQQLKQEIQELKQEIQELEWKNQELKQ

[67] = target: T67, 4H619-bN; assay: two-hybrid library CCNG1
T67 chain: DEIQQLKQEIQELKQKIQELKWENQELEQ

[68] = target: T68, 4H850-bN; assay: two-hybrid library CCNG1
T68 chain: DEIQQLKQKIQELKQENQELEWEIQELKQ

[69] = target: T69, 4H3414-bN; assay: two-hybrid library CCNG1
T69 chain: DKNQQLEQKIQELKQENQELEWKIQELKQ

DENQELEKKNEELKRKIWELKKKIQELKR [O2-bH]
interaction score [1]: 0.712
interaction score [2]: 0.993
interaction score [3]: -0.611
interaction score [4]: 0.211
interaction score [5]: 0.854
interaction score [6]: -0.645
interaction score [7]: -0.662
interaction score [8]: -1.53

DEIQELEKKIEELKRENWELEKENQELER [O3-bH]
interaction score [1]: -0.104
interaction score [2]: -0.176
interaction score [3]: 2.01
interaction score [4]: 0.212
interaction score [5]: -0.716
interaction score [7]: -0.247
interaction score [8]: -0.92

DKNQELKKEIEELERENWELEKKIQELKQ [P6bHq]
interaction score [9]: 0.113
interaction score [10]: 1.03
interaction score [11]: -0.205
interaction score [12]: 1

DKNAQLEQEIAELKQKIAELEWENAQLKQ [4H3172-bA]
interaction score [13]: -0.244
interaction score [14]: 1.36
interaction score [15]: -0.273
interaction score [16]: -1.11
interaction score [17]: 0.174
interaction score [18]: 0.247
interaction score [19]: -0.291
interaction score [20]: -0.395
interaction score [21]: -0.0855
interaction score [22]: -0.867
interaction score [23]: -0.797

DENAALKAEIAALKAENAALKAKIAALEG [4H1629-AA]
interaction score [24]: -1.18
interaction score [25]: -1.46
interaction score [26]: -1.58
interaction score [27]: -1.22
interaction score [28]: -0.847
interaction score [29]: -1.39
interaction score [30]: -1.33
interaction score [31]: -1.42
interaction score [32]: -1.82
interaction score [33]: -1.55
interaction score [34]: -1.13
interaction score [35]: -0.375
interaction score [36]: -1.7
interaction score [37]: -1.6
interaction score [38]: -1.67
interaction score [39]: -0.212
interaction score [40]: -0.752
interaction score [41]: -1
interaction score [42]: 0.462
interaction score [43]: -1.62
interaction score [44]: 2.04
interaction score [45]: -0.00053
interaction score [46]: -1.66
interaction score [47]: -1.61
interaction score [48]: -1.89

DKNAALKAKNAALEAKIAALEAEIAALEG [4H4001-AA]
interaction score [49]: -2.04
interaction score [50]: -1.32
interaction score [51]: -1.79
interaction score [52]: -1.75
interaction score [53]: -1.57
interaction score [54]: -0.824
interaction score [55]: -1.19
interaction score [56]: -1.85
interaction score [57]: -1.79

DKNQQLEQEIQELEQKNQELKWEIQELEQ [4H3129-bN]
interaction score [58]: -0.806
interaction score [59]: -1.26
interaction score [60]: -0.744
interaction score [61]: -0.835
interaction score [62]: -1.2
interaction score [63]: -1.45
interaction score [64]: -1.47
interaction score [65]: -0.749
interaction score [66]: -1.09
interaction score [67]: -0.774
interaction score [68]: -1.41
interaction score [69]: 1.09
